Assay results reported in patent US20240279310A1.
Where two headings read alike, the source gives them in different places.

Tests used:
[1] = molecular target: recombinant human APRIL (Tonbo Biosciences) (human) (UniProt O75888); assay: cell-based or functional assay
[2] = molecular target: recombinant human BAFF (BioLegend) (human) (UniProt Q9Y275); assay: cell-based or functional assay
[3] = molecular target: recombinant human APRIL (Tonbo Biosciences) (human) (UniProt O75888); assay: cell-based or functional assay; parameters: IC50 APRIL (Δ TACI 30-110-Fc) / IC50 BAFF (Δ TACI 30-110-Fc): unit not given beside the values
[4] = molecular target: recombinant human BAFF (BioLegend) (human) (UniProt Q9Y275); assay: cell-based or functional assay; parameters: IC50 APRIL (Δ TACI 30-110-Fc) / IC50 BAFF (Δ TACI 30-110-Fc): unit not given beside the values
[5] = molecular target: recombinant human APRIL (Tonbo Biosciences) (human) (UniProt O75888); assay: cell-based or functional assay; parameters: IC50 APRIL (Δ TACI 30-110) / IC50 BAFF (Δ TACI 30-110): unit not given beside the values
[6] = molecular target: recombinant human BAFF (BioLegend) (human) (UniProt Q9Y275); assay: cell-based or functional assay; parameters: IC50 APRIL (Δ TACI 30-110) / IC50 BAFF (Δ TACI 30-110): unit not given beside the values
[7] = molecular target: recombinant human BAFF (BioLegend) (human) (UniProt Q9Y275)
[8] = molecular target: APRIL+BAFF (15 nM APRIL+10 nM BAFF) in combination; assay: cell-based or functional assay

recombinant human APRIL (Tonbo Biosciences) (human), sequence (O75888 105-250 limits assumed): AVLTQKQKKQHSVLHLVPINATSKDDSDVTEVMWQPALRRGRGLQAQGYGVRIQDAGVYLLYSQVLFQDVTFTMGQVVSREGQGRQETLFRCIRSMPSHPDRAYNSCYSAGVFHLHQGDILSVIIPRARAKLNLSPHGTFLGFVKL
TACI 13-118-Fc (WT TACI 13-118, SEQ ID NO:131, fused to the Fc of SEQ ID NO: 73) (Fc fusion), sequence (chain): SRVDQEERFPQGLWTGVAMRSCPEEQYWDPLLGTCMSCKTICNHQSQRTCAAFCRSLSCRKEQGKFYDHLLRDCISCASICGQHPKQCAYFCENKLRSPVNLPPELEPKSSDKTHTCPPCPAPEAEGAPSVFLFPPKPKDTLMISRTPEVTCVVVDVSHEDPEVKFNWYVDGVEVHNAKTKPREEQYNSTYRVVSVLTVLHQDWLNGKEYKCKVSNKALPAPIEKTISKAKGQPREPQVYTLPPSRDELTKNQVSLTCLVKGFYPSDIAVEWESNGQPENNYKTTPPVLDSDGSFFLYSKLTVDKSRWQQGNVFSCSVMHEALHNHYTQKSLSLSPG
TACI 30-110-Fc (WT TACI 30-110, SEQ ID NO:130, fused to the Fc of SEQ ID NO: 73) (Fc fusion), sequence (chain): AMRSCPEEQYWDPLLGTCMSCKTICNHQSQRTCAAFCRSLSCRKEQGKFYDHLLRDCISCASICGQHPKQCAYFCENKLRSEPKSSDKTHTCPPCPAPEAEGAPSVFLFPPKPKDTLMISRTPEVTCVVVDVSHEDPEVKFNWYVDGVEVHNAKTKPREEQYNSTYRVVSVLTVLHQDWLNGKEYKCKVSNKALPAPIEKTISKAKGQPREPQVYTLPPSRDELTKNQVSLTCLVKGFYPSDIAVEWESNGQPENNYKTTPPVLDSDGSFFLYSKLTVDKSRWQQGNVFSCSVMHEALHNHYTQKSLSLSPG
Telitacicept/Tai'ai (RemeGen) (Fc fusion), sequence (chain): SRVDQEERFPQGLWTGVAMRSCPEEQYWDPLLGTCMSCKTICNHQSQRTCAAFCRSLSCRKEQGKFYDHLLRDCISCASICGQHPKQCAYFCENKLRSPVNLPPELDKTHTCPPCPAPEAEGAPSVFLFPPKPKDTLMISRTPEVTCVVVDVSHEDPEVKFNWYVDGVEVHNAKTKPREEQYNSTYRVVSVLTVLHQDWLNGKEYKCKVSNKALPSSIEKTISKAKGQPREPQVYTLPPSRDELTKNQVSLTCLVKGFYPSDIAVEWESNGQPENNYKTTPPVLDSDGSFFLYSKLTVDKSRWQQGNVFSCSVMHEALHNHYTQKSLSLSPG

Substance | APRIL IC50 (pM) [1] [pM] | APRIL IC50 (Δ WT) [1] | BAFF IC50 (pM) [2] [pM] | BAFF IC50 (Δ WT) [2] | other results
27 TACI CRD2-Fc (TACI vTD SEQ ID NO:27, Q75E/R84Q) (Fc fusion) | 11800 | 0.96 | 1460 | 0.79 | IC50 (nM) APRIL [3]: 262 nM; IC50 APRIL (Δ TACI 30-110-Fc) [3]: 0.07; IC50 (nM) BAFF [4]: 1390 nM; IC50 BAFF (Δ TACI 30-110-Fc) [4]: 0.24
TACI 30-110-Fc (WT TACI 30-110, SEQ ID NO:130, fused to the Fc of SEQ ID NO: 73) (Fc fusion) | – | – | – | – | IC50 (nM) APRIL [3]: 3850 nM; IC50 APRIL (Δ TACI 30-110-Fc) [3]: 1; IC50 (nM) BAFF [4]: 5770 nM; IC50 BAFF (Δ TACI 30-110-Fc) [4]: 1; IC50 (nM) APRIL [5]: 4320 nM; IC50 APRIL (Δ TACI 30-110) [5]: 1; IC50 (nM) BAFF [6]: 4490 nM; IC50 BAFF (Δ TACI 30-110) [6]: 1
TACI vTD-Fc with the vTD of SEQ ID NO: 23 (A101D) (Fc fusion) | 8380 | 0.68 | 1830 | 0.99 | –
TACI vTD-Fc with the vTD of SEQ ID NO: 25 (K77E, A101D) (Fc fusion) | 2040 | 0.17 | 1960 | 1.06 | –
TACI vTD-Fc with the vTD of SEQ ID NO: 32 (K77E) (Fc fusion) | 159 | 0.01 | 1540 | 0.83 | –
TACI vTD-Fc with the vTD of SEQ ID NO: 179 (Q75E, F78Y) (Fc fusion) | 13400 | 1.09 | 1790 | 0.97 | –
TACI vTD-Fc with the vTD of SEQ ID NO: 180 (Q75E, A101D) (Fc fusion) | 20000 | 1.62 | 2360 | 1.27 | –
TACI vTD-Fc with the vTD of SEQ ID NO: 181 (Q75E, Y102D) (Fc fusion) | 11100 | 0.9 | 2150 | 1.16 | –
TACI vTD-Fc with the vTD of SEQ ID NO: 185 (F78Y, A101D) (Fc fusion) | 2020 | 0.16 | 1850 | 1 | –
TACI vTD-Fc with the vTD of SEQ ID NO: 186 (F78Y, Y102D) (Fc fusion) | 8490 | 0.69 | 1960 | 1.06 | –
TACI vTD-Fc with the vTD of SEQ ID NO: 187 (R84Q, A101D) (Fc fusion) | 11200 | 0.91 | 2350 | 1.27 | –
TACI vTD-Fc with the vTD of SEQ ID NO: 189 (A101D, Y102D) (Fc fusion) | 33600 | 2.72 | 1950 | 1.05 | –
TACI vTD-Fc with the vTD of SEQ ID NO: 191 (K77E, F78Y) (Fc fusion) | 10100 | 0.82 | 1970 | 1.06 | –
TACI vTD-Fc with the vTD of SEQ ID NO: 192 (K77E, Y102D) (Fc fusion) | 891 | 0.07 | 2180 | 1.17 | –
Telitacicept/Tai'ai (RemeGen) (Fc fusion) | – | – | – | – | IC50 (pM) BAFF + APRIL [8]: 16800 pM

Second part, led by results:

APRIL IC50 (pM) [1] [pM] | APRIL IC50 (Δ WT) [1] | BAFF IC50 (pM) [2] [pM] | BAFF IC50 (Δ WT) [2] | Substance | other results
2910 | 0.24 | 1180 | 0.64 | 29 TACI CRD2-Fc (TACI vTD SEQ ID NO:29, K77E/A101D/Y102D) (Fc fusion) | IC50 (nM) APRIL [3]: 339 nM; IC50 APRIL (Δ TACI 30-110-Fc) [3]: 0.09; IC50 (nM) BAFF [4]: 1340 nM; IC50 BAFF (Δ TACI 30-110-Fc) [4]: 0.23
– | – | 53200 | 28.7 | BAFF-R ECD (control) (receptor) | –
13200 | 1.07 | 1990 | 1.07 | TACI 13-118, with K77E/F78Y/Y102D, fused to the Fc of SEQ ID NO:73 (Fc fusion) | IC50 (nM) APRIL [5]: 848 nM; IC50 APRIL (Δ TACI 30-110) [5]: 0.2; IC50 (nM) BAFF [6]: 2050 nM; IC50 BAFF (Δ TACI 30-110) [6]: 0.46
– | – | 7900 | 4.26 | TACI 13-118-Fc (WT TACI 13-118, SEQ ID NO:131, fused to the Fc of SEQ ID NO: 73) (Fc fusion) | IC50 (nM) APRIL [3]: 9100 nM; IC50 APRIL (Δ TACI 30-110-Fc) [3]: 2.37; IC50 (nM) BAFF [4]: 7700 nM; IC50 BAFF (Δ TACI 30-110-Fc) [4]: 1.33; IC50 (nM) APRIL [5]: 7810 nM; IC50 APRIL (Δ TACI 30-110) [5]: 1.81; IC50 (nM) BAFF [6]: 8450 nM; IC50 BAFF (Δ TACI 30-110) [6]: 1.88
4260 | 0.35 | 2260 | 1.22 | TACI vTD-Fc with the vTD of SEQ ID NO: 24 (K77E, R84Q) (Fc fusion) | –
566 | 0.05 | 5490 | 2.96 | TACI vTD-Fc with the vTD of SEQ ID NO: 30 (R84Q) (Fc fusion) | IC50 (read off the curve) [7]: 0.001 µM
1940 | 0.16 | 1460 | 0.79 | TACI vTD-Fc with the vTD of SEQ ID NO: 177 (Q75E) (Fc fusion) | –
10700 | 0.87 | 1890 | 1.02 | TACI vTD-Fc with the vTD of SEQ ID NO: 178 (Q75E, K77E) (Fc fusion) | –
10100 | 0.82 | 2210 | 1.19 | TACI vTD-Fc with the vTD of SEQ ID NO: 182 (K77E, F78Y, R84Q) (Fc fusion) | –
176 | 0.01 | 1640 | 0.88 | TACI vTD-Fc with the vTD of SEQ ID NO: 183 (F78Y) (Fc fusion) | –
2620 | 0.21 | 2260 | 1.22 | TACI vTD-Fc with the vTD of SEQ ID NO: 184 (F78Y, R84Q) (Fc fusion) | –
12300 | 1 | 1860 | 1.01 | TACI vTD-Fc with the vTD of SEQ ID NO: 188 (R84Q, Y102D) (Fc fusion) | –
11600 | 0.94 | 1860 | 1 | TACI vTD-Fc with the vTD of SEQ ID NO: 190 (Y102D) (Fc fusion) | –
